This assay has as its target streptavidin immobilized on membrane (streptavidin modified membrane prepared according to FIG. 10) (Streptomyces avidinii) (UniProt P22629). The assay is described as follows: depletion from solution; 0.0055 mL streptavidin membrane incubated in 0.4 mL of 1 mg/mL biotin-conjugate for 24 hours.

Chain of streptavidin immobilized on membrane (streptavidin modified membrane prepared according to FIG. 10) (Streptomyces avidinii) (P22629 37-163 limits assumed): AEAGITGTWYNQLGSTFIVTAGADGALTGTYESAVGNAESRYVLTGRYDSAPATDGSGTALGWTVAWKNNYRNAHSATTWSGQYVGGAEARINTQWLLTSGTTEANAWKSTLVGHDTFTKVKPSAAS

For the substance Biotin-BSA (from UniProt P02769 25-607), the Amount Immobilized (mg biotin-conjugate/mL membrane) (mg biotin-conjugate/mL membrane) came to 38.6. The figure for Biotin-Mal 1 is 9.71.

The values above are taken from patent US20250128187A1.
